The assay concerns the target N-HGbRL, the N-terminal globin domain of HGbRL from Methylacidiphilum infernorum (Methylacidiphilum infernorum). The assay can be described thus: crystal structure; open, imidazole-bound form; space group C2, two subunits in the asymmetric unit; crystals at 20 °C in 3.5 M 1,6-hexanediol, 0.1 M sodium citrate pH 5.6; 1.94 Å.

Results on one substance are retold here after PMC4476040.

One may read the stoichiometry N as the number of molecules, sites or subunits per partner or assembly.

“N-HGbRL, the N-terminal globin domain of HGbRL from Methylacidiphilum infernorum (domain or fragment)”: the stoichiometry N amounted to 2.
